We go through one protein from paper PMC3113324, “AKAP5 and AKAP12 Form Homo-oligomers” (Journal of Molecular Signaling, 2011).

The term stoichiometry N denotes the number of molecules, sites or subunits per partner or assembly.

The series deals with the molecule itself. The series is described as follows: SDS-PAGE (SDS-resistant oligomers); whole-cell lysates of HEK293 cells on SDS-PAGE without urea; immunoblot with anti-HA or anti-AKAP12; cells also treated with isoproterenol (10 uM, 0, 5, 30 min), KT5720, PD98059 or Rolipram (45 min).

B1: HA-AKAP12M3 (S627A, S696-698A, S772A) (natural protein, human, UniProt Q02952 1-1782, looked up)
chain: MGAGSSTEQRSPEQPPEGSSTPAEPEPSGGGPSAEAAPDTTADPAIAASDPATKLLQKNGQLSTINGVAEQDELSLQEGDLNGQKGALNGQGALNSQEEEEVIVTEVGQRDSEDVSKRDSDKEMATKSAVVHDITDDGQEETPEIIEQIPSSESNLEELTQPTESQANDIGFKKVFKFVGFKFTVKKDKTEKPDTVQLLTVKKDEGEGAAGAGDHKDPSLGAGEAASKESEPKQSTEKPEETLKREQSHAEISPPAESGQAVEECKEEGEEKQEKEPSKSAESPTSPVTSETGSTFKKFFTQGWAGWRKKTSFRKPKEDEVEASEKKKEQEPEKVDTEEDGKAEVASEKLTASEQAHPQEPAESAHEPRLSAEYEKVELPSEEQVSGSQGPSEEKPAPLATEVFDEKIEVHQEEVVAEVHVSTVEERTEEQKTEVEETAGSVPAEELVEMDAEPQEAEPAKELVKLKETCVSGEDPTQGADLSPDEKVLSKPPEGVVSEVEMLSSQERMKVQGSPLKKLFTSTGLKKLSGKKQKGKRGGGDEESGEHTQVPADSPDSQEEQKGESSASSPEEPEEITCLEKGLAEVQQDGEAEEGATSDGEKKREGVTPWASFKKMVTPKKRVRRPAESDKEDELDKVKSATLSSTESTASEMQEEMKGSVEEPKPEEPKRKVDTSVSWEALICVGSSKKRARRGAAADEEGGPKAMGGDHQKADEAGKDKETGTDGILAGSQEHDPGQGSSSPEQAGSPTEGEGVSTWESFKRLVTPRKKAKSKLEEKSEDSIAGSGVEHSTPDTEPGKEESWVSIKKFIPGRRKKRPDGKQEQAPVEDAGPTGANEDDSDVPAVVPLSEYDAVEREKMEAQQAQKSAEQPEQKAATEVSKELSESQVHMMAAAVADGTRAATIIEERSPSWISASVTEPLEQVEAEAALLTEEVLEREVIAEEEPPTVTEPLPENREARGDTVVSEAELTPEAVTAAETAGPLGAEEGTEASAAEETTEMVSAVSQLTDSPDTTEEATPVQEVEGGVPDIEEQERRTQEVLQAVAEKVKEESQLPGTGGPEDVLQPVQRAEAERPEEQAEASGLKKETDVVLKVDAQEAKTEPFTQGKVVGQTTPESFEKAPQVTESIESSELVTTCQAETLAGVKSQEMVMEQAIPPDSVETPTDSETDGSTPVADFDAPGTTQKDEIVEIHEENEVASGTQSGGTEAEAVPAQKERPPAPSSFVFQEETKEQSKMEDTLEHTDKEVSVETVSILSKTEGTQEADQYADEKTKDVPFFEGLEGSIDTGITVSREKVTEVALKGEGTEEAECKKDDALELQSHAKSPPSPVEREMVVQVEREKTEAEPTHVNEEKLEHETAVTVSEEVSKQLLQTVNVPIIDGAKEVSSLEGSPPPCLGQEEAVCTKIQVQSSEASFTLTAAAEEEKVLGETANILETGETLEPAGAHLVLEEKSSEKNEDFAAHPGEDAVPTGPDCQAKSTPVIVSATTKKGLSSDLEGEKTTSLKWKSDEVDEQVACQEVKVSVAIEDLEPENGILELETKSSKLVQNIIQTAVDQFVRTEETATEMLTSELQTQAHVIKADSQDAGQETEKEGEEPQASAQDETPITSAKEESESTAVGQAHSDISKDMSEASEKTMTVEVEGSTVNDQQLEEVVLPSEEEGGGAGTKSVPEDDGHALLAERIEKSLVEPKEDEKGDDVDDPENQNSALADTDASGGLTKESPDTNGPKQKEKEDAQEVELQEGKVHSESDKAITPQAQEELQKQERESAKSELTES
notes: AKAP12, human, with alanine substitution of the protein kinase A phosphorylation sites; source: HEK293, transfected (pcDNA3.1), in whole-cell lysate
As for B1, the “stoichiometry N” value is 2.
